Laboratory results taken from PMC8896794 (Science Advances, 2022).
Positions count from the first letter of the chain named. One block for each binder: values may come before it.

How the values were obtained:
[1] = biological target: T1, porcine TSHR (Sus scrofa, UniProt Q8SPP9); assay: flow cytometry on cells; HEK293T cells transfected with pTSHR and GFP, mixed with PBS or purified mouse serum IgGs, washed, stained with M22 mAb, then APC-conjugated anti-human IgG
T1 construct: thyroid-stimulating hormone receptor, porcine, cDNA NM_214297.1; also called pTSHR; source: HEK293T, transfected (with GFP), on cells

[2] = biological target: T2, human TSHR extracellular domain complexed with HLA-DP5 (Homo sapiens; HLA-DPA1*02:02/DPB1*05:01, UniProt P16473;IMGT, strain); assay: flow cytometry on cells; HEK293T cells transfected with TSHR or TSHR ECD with or without HLA-DP (pME18S, with GFP), incubated with the human anti-TSHR mAb, then APC-conjugated anti-human IgG; FACSCalibur; MFI minus that of GFP-negative cells
T2 construct: human TSHR extracellular domain (ECD), residues 22 to 282; the ECD has no membrane anchor of its own and is seen on the cell surface with HLA-DP5; also called TSHR ECD with HLA-DP5; TSHR ECD/HLA-DP complex; source: HEK293T, co-transfected (pME18S), on cells; not shown: Flag, N-terminal, kept; copies: + +

[3] = biological target: T3, full-length human TSHR complexed with HLA-DP5 (HLA-DPA1*02:02/HLA-DPB1*05:01) (Homo sapiens; …, UniProt P16473;IMGT, strain); assay: as above
T3 construct: thyroid-stimulating hormone receptor (TSHR), human, cDNA AY429111.1, full length; co-expressed in one cell; also called TSHR with HLA-DP5; TSHR/HLA-DP5 complex; source: HEK293T, co-transfected (pME18S), on cells; copies: + +

[4] = biological target: T4, full-length mouse TSHR on DAP.3 cells (mTSHR alone) (Mus musculus, UniProt P47750); assay: flow cytometry on cells; DAP.3 cells stably expressing mTSHR alone or mTSHR and I-A^k stained with K1-18 mAb; DAP.3 parental cells as control
T4 construct: thyroid-stimulating hormone receptor, mouse, cDNA NM_011648.5, full length

[5] = biological target: T5, full-length mouse TSHR with I-A^k on DAP.3 cells (Mus musculus; I-Ak, UniProt P47750;P01910;P06343); assay: as above
T5 construct: thyroid-stimulating hormone receptor, mouse, cDNA NM_011648.5, full length; mouse MHC class II I-A^k alpha chain, cDNA V00832.1; mouse MHC class II I-A^k beta chain, cDNA M13538.1; co-expressed in one cell; also called mTSHR + I-A^k; mTSHR and I-A^k; copies: + +

[6] = biological target: T6, full-length human thyroid-stimulating hormone receptor, transfected alone (Homo sapiens, UniProt P16473); assay: flow cytometry on cells; HEK293T cells transfected with TSHR or TSHR ECD with or without HLA-DP (pME18S, with GFP), incubated with the human anti-TSHR mAb, then APC-conjugated anti-human IgG; FACSCalibur; MFI minus that of GFP-negative cells
T6 construct: thyroid-stimulating hormone receptor (TSHR), human, cDNA AY429111.1, full length; no MHC class II co-transfected; also called TSHR; human TSHR; source: HEK293T, transfected (pME18S), on cells

[7] = biological target: T7, full-length human TSHR cotransfected with HLA-DP4 (HLA-DPA1*01:03/HLA-DPB1*04:01) (Homo sapiens; HLA-DPA1*01:03/DPB1*04:01, UniProt P16473;IMGT, strain); assay: as above
T7 construct: thyroid-stimulating hormone receptor (TSHR), human, cDNA AY429111.1, full length; co-expressed in one cell; also called TSHR with HLA-DP4; source: HEK293T, co-transfected (pME18S), on cells; copies: + +

T5 sequence (P47750 22-764, chain 1 of 3): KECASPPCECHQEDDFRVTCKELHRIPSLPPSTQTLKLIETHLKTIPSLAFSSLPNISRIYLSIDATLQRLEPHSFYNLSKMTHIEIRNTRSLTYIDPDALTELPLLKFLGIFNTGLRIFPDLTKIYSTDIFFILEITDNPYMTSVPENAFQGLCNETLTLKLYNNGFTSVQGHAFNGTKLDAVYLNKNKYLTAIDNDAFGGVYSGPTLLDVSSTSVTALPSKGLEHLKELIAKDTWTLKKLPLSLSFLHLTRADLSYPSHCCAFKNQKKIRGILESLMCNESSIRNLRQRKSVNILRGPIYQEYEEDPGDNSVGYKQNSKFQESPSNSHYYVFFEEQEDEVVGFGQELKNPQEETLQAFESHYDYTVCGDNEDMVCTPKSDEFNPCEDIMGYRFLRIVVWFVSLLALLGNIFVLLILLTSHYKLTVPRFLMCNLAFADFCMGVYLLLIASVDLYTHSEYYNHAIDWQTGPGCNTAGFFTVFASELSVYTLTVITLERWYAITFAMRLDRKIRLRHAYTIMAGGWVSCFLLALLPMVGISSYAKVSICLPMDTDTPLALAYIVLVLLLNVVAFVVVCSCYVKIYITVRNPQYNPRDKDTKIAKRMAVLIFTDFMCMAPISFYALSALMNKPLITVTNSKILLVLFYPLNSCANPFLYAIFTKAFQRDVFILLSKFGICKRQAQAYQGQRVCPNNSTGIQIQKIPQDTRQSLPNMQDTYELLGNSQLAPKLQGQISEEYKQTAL
T5 sequence (P01910 24-256, chain 2 of 3): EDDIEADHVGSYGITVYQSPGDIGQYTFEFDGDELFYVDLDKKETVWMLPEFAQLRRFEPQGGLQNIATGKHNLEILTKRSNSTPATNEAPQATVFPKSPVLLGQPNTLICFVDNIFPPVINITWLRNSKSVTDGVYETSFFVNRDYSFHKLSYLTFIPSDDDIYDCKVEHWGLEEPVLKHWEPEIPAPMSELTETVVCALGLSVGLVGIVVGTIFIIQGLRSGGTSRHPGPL
T5 sequence (P06343 28-263, chain 3 of 3): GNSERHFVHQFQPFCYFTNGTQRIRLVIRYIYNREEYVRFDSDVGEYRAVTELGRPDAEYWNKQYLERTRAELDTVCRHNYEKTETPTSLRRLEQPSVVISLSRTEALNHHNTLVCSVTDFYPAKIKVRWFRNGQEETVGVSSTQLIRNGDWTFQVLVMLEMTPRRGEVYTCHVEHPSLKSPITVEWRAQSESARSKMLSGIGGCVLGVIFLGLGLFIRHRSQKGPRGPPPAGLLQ
T4 sequence (P47750 22-764): as the sequence (P47750 22-764, chain 1 of 3) above
T1 sequence (Q8SPP9 22-764): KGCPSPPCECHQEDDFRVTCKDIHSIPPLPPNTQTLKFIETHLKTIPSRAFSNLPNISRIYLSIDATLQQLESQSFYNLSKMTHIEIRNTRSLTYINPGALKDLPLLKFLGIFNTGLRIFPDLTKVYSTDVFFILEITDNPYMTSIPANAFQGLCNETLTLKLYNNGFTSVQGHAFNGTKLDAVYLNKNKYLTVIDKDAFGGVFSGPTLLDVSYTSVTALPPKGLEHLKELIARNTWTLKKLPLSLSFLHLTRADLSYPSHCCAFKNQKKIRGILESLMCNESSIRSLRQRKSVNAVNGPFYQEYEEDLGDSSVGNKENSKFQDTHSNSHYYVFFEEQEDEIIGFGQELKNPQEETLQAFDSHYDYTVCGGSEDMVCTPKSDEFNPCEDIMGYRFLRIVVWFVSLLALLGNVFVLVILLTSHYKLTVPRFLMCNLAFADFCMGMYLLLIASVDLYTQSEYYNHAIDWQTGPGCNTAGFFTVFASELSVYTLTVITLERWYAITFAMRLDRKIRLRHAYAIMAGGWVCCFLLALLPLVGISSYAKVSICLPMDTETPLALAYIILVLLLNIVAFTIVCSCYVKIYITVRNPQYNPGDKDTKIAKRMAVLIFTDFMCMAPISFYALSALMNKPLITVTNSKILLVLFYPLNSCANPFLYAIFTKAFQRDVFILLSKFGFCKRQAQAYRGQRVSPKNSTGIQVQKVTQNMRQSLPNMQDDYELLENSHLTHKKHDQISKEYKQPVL

- binding result [1]: binds
B1: M22 thyroid-stimulating monoclonal antibody (antibody, V domains shown)
VH: QVQLVQSGAEVKKPGESLKISCRGSGYRFTSYWINWVRQLPGKGLEWMGRIDPTDSYTNYSPSFKGHVTVSADKSINTAYLQWSSLKASDTGMYYCARLEPGYSSTWSVNWGQGTLVTVSS
VL: LTVLTQPPSVSGAPRQRVTISCSGNSSNIGNNAVNWYQQLPGKAPKLLIYYDDQLPSGVSDRFSGSRSGTSASLAIRGLQSEDEADYYCTSWDDSLDSQLFGGGTRLTVL
notes: constant region of the λ chain is not described; IgG1; also called M22 mAb; source: recombinant, V regions synthesized and cloned into pME18S expression vectors

- binding result [2]: binds
- binding result [3]: binds
- binding result [4]: binds
- binding result [5]: binds
B2: K1-18 monoclonal antibody, wild type (antibody, V domains shown)
VH: EVQLVQSGAEVKKPGESLKISCKGSGYSFTNYWIGWVRQMPGKGLEWMGIIYPYDSDTRYSPSFEGQVTISADKSIRTAYLHWSSLKASDTAMYYCVRPRDGSYPYDAFDIWGQGTMVTVSS
VL: EIVLTQSPGTLSLSPGERATLSCRASQSVSNNYLAWYQQKPGQAPRLLIYGASSRATGIPDRFSGSGSGTDFTLTISRLEPEDFAVYYCQHCGSSLRAFGQGTKVEIK
notes: constant region of the λ chain is not described; IgG1; thyroid-stimulating autoantibody (TRAb) from a Graves' disease patient; also called WT K1-18; K1-18 mAb; source: recombinant, V regions synthesized and cloned into pME18S expression vectors

- binding result [3]: binds
- binding result [6]: no binding
- binding result [7]: no binding
B3: germlined K1-18 monoclonal antibody (antibody, V domains shown)
VH: B2 VH with N31S, Y54G, V97A
VL: B2 VL with N31S, N32S
notes: constant region of the λ chain is not described; IgG1; also called germlined K1-18 mAb; source: recombinant, mutated from wild-type K1-18 V regions (QuikChange), pME18S expression vectors
